In paper PMC10585736:

B1: Pol30p (PCNA), wild type, two-hybrid prey (pBL240-PCNA-Gal4AD) [S. cerevisiae] / Rrm3p, two-hybrid bait [S. cerevisiae] (parent)
chain 1: MLEAKFEEASLFKRIIDGFKDCVQLVNFQCKEDGIIAQAVDDSRVLLVSLEIGVEAFQEYRCDHPVTLGMDLTSLSKILRCGNNTDTLTLIADNTPDSIILLFEDTKKDRIAEYSLKLMDIDADFLKIEELQYDSTLSLPSSEFSKIVRDLSQLSDSINIMITKETIKFVADGDIGSGSVIIKPFVDMEHPETSIKLEMDQPVDLTFGAKYLLDIIKGSSLSDRVGIRLSSEAPALFQFDLKSGFLQFFLAPKFNDEE
chain 2: MFRSHASGNKKQWSKRSSNGSTPAASASGSHAYRQQTLSSFFMGCGKKSAAASKNSTTIIDLESGDEGNRNITAPPRPRLIRNNSSSLFSQSQGSFGDDDPDAEFKKLVDVPRLNSYKKSSRSLSMTSSLHKTASASTTQKTYHFDEDETLREVTSVKSNSRQLSFTSTINIEDSSMKLSTDSERPAKRSKPSMEFQGLKLTVPKKIKPLLRKTVSNMDSMNHRSASSPVVLTMEQERVVNLIVKKRTNVFYTGSAGTGKSVILQTIIRQLSSLYGKESIAITASTGLAAVTIGGSTLHKWSGIGIGNKTIDQLVKKIQSQKDLLAAWRYTKVLIIDEISMVDGNLLDKLEQIARRIRKNDDPFGGIQLVLTGDFFQLPPVAKKDEHNVVKFCFESEMWKRCIQKTILLTKVFRQQDNKLIDILNAIRYGELTVDIAKTIRNLNRDIDYADGIAPTELYATRREVELSNVKKLQSLPGDLYEFKAVDNAPERYQAILDSSLMVEKVVALKEDAQVMMLKNKPDVELVNGSLGKVLFFVTESLVVKMKEIYKIVDDEVVMDMRLVSRVIGNPLLKESKEFRQDLNARPLARLERLKILINYAVKISPHKEKFPYVRWTVGKNKYIHELMVPERFPIDIPRENVGLERTQIPLMLCWALSIHKAQGQTIQRLKVDLRRIFEAGQVYVALSRAVTMDTLQVLNFDPGKIRTNERVKDFYKRLETLK

Variants of: B1
Test: yeast two-hybrid (β-galactosidase)
Settings: with Rrm3p, prey Pol30-6p, parent: 1.3, read off a plot
Work on chain 1 D41A D42A yielded a response (U/mg of protein) of 0.58.

Same assay, conditions: with Rrm3p, prey Pol30-8p, parent: 1.3, read off a plot
With chain 1 R61A D63A the response (U/mg of protein) was 0.75.

Same assay, conditions: with Rrm3p, prey Pol30-79p, parent: 1.3, read off a plot
chain 1 L126A I128A gave a response (U/mg of protein) of 1.3.
